Experimental data published in publication PMC6561738 (Science Advances, 2019).
Each block holds one binder with its values, some of them ahead of it.

Assays:
atomic force microscopy = target: the molecule itself; test: atomic force microscopy
SecA (wild type) = SecA (wild type) (E. coli, UniProt P10408 1-901); test: atomic force microscopy

B1: SecAC4Q801C, cross-linked dimeric species (SecA C98S, C885S, C887S, C896S, Q801C) (enzyme)
chain: MLIKLLTKVFGSRNDRTLRRMRKVVNIINAMEPEMEKLSDEELKGKTAEFRARLEKGEVLENLIPEAFAVVREASKRVFGMRHFDVQLLGGMVLNERSIAEMRTGEGKTLTATLPAYLNALTGKGVHVVTVNDYLAQRDAENNRPLFEFLGLTVGINLPGMPAPAKREAYAADITYGTNNEYGFDYLRDNMAFSPEERVQRKLHYALVDEVDSILIDEARTPLIISGPAEDSSEMYKRVNKIIPHLIRQEKEDSETFQGEGHFSVDEKSRQVNLTERGLVLIEELLVKEGIMDEGESLYSPANIMLMHHVTAALRAHALFTRDVDYIVKDGEVIIVDEHTGRTMQGRRWSDGLHQAVEAKEGVQIQNENQTLASITFQNYFRLYEKLAGMTGTADTEAFEFSSIYKLDTVVVPTNRPMIRKDLPDLVYMTEAEKIQAIIEDIKERTAKGQPVLVGTISIEKSELVSNELTKAGIKHNVLNAKFHANEAAIVAQAGYPAAVTIATNMAGRGTDIVLGGSWQAEVAALENPTAEQIEKIKADWQVRHDAVLEAGGLHIIGTERHESRRIDNQLRGRSGRQGDAGSSRFYLSMEDALMRIFASDRVSGMMRKLGMKPGEAIEHPWVTKAIANAQRKVESRNFDIRKQLLEYDDVANDQRRAIYSQRNELLDVSDVSETINSIREDVFKATIDAYIPPQSLEEMWDIPGLQERLKNDFDLDLPIAEWLDKEPELHEETLRERILAQSIEVYQRKEEVVGAEMMRHFEKGVMLQTLDSLWKEHLAAMDYLRQGIHLRGYAQKDPKCEYKRESFSMFAAMLESLKYEVISTLSKVQVRMPEEVEELEQQRRMEAERLAQMQQLSHQDDDSAAAAALAAQTGERKVGRNDPSPSGSGKKYKQSHGRLQ
modifications: cross-linked dimer (so in the source); the chemistry of the cross-link is not told
binding result (atomic force microscopy): binds

binding result (SecA (wild type)): binds
B2: SecYEG translocon (SecY C329S, C385S; His-tagged SecE; SecG) (complex)
chain 1: MAKQPGLDFQSAKGGLGELKRRLLFVIGALIVFRIGSFIPIPGIDAAVLAKLLEQQRGTIIEMFNMFSGGALSRASIFALGIMPYISASIIIQLLTVVHPTLAEIKKEGESGRRKISQYTRYGTLVLAIFQSIGIATGLPNMPGMQGLVINPGFAFYFTAVVSLVTGTMFLMWLGEQITERGIGNGISIIIFAGIVAGLPPAIAHTIEQARQGDLHFLVLLLVAVLVFAVTFFVVFVERGQRRIVVNYAKRQQGRRVYAAQSTHLPLKVNMAGVIPAIFASSIILFPATIASWFGGGTGWNWLTTISLYLQPGQPLYVLLYASAIIFFSFFYTALVFNPRETADNLKKSGAFVPGIRPGEQTAKYIDKVMTRLTLVGALYITFISLIPEFMRDAMKVPFYFGGTSLLIVVVVIMDFMAQVQTLMMSSQYESALKKANLKGYGR
chain 2: MSANTEAQGSGRGLEAMKWVVVVALLLVAIVGNYLYRDIMLPLRALAVVILIAAAGGVALLTTKGKATVAFAREARTEVRKVIWPTRQETLHTTLIVAAVTAVMSLILWGLDGILVRLVSFITGLRF
chain 3: MYEALLVVFLIVAIGLVGLIMLQQGKGADMGASFGAGASATLFGSSGSGNFMTRMTALLATLFFIISLVLGNINSNKTNKGSEWENLSAPAKTEQTQPAAPAKPTSDIPN
